Key:
[1] = target: human FcγRIII (CD16), CD16a (F158), on CD16-transfected Jurkat cells (human) (UniProt P08637); assay: summary of Table 5 assays
[2] = target: human FcγRIII (CD16), CD16a (F158), on CD16-transfected Jurkat cells (human) (UniProt P08637); assay: CD16 bridging assay, purified

human FcγRIII (CD16), CD16a (F158), on CD16-transfected Jurkat cells (human), sequence (P08637 17-254): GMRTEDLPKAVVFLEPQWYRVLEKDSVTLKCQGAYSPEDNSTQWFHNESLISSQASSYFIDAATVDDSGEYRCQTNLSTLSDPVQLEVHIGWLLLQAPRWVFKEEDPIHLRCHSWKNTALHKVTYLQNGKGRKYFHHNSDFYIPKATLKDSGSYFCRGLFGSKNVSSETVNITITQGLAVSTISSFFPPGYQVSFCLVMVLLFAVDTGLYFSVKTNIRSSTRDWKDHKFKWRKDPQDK

Substance: chCB6-huIgG1 Y296S (antibody)
- fold decrease in binding vs WT [1]: > 10 fold
- fold decrease in binding vs WT [2]: 20 fold
